Here are results for 45 variants from the Human Domainome abundance scans (Beltran et al. 2025).

To fix the notation:
B1: Triacylglycerol hydrolase DDHD2, residues 389 to 447; numbered along this chain, O94830 (parent)
chain: TLEEDLKKLQLSEFFDIFEKEKVDKEALALCTDRDLQEIGIPLGPRKKILNYFSTRKNS

± gives the uncertainty stated by the source.

Variants of B1 are the subject of this data set. As to the kind of experiment: abundance fitness (aPCA) (normalised: wild type 0, dead -1); higher = more abundant; growth selection in yeast, the domain comes from the species named. As to conditions: Homo sapiens.
Turning to TLEEDLKKLQLSEFFDIFEKEKVDKEALALCTDRDKQEIGIPLGPRKKILNYFSTRKNS [L36K], the abundance fitness is -0.06 ± 0.086. Turning to TLEEDLKKLQLSEFFDIFEKEKVDKEALALCTDRDEQEIGIPLGPRKKILNYFSTRKNS [L36E], the abundance fitness was -0.363 ± 0.1.

TLEEDLKKLQLSEFFDIFEKEKVDKEALALCTDRDTQEIGIPLGPRKKILNYFSTRKNS [L36T]: the abundance fitness is -0.298 ± 0.093.

For TLEEDLKKLQLSEFFDIFEKEKVDKEALALCTDRDNQEIGIPLGPRKKILNYFSTRKNS [L36N], the abundance fitness is -0.267 ± 0.098. To TLEEDLKKLQLSEFFDIFEKEKVDKEALALCTDRDHQEIGIPLGPRKKILNYFSTRKNS [L36H] belongs -0.352 ± 0.17. TLEEDLKKLQLSEFFDIFEKEKVDKEALALCTDRDQQEIGIPLGPRKKILNYFSTRKNS [L36Q]: the abundance fitness was -0.448 ± 0.12. Regarding TLEEDLKKLQLSEFFDIFEKEKVDKEALALCTDRDVQEIGIPLGPRKKILNYFSTRKNS [L36V], the abundance fitness is -0.567 ± 0.073. In the case of TLEEDLKKLQLSEFFDIFEKEKVDKEALALCTDRDFQEIGIPLGPRKKILNYFSTRKNS [L36F], the abundance fitness was -0.797 ± 0.15.

Take TLEEDLKKLQLSEFFDIFEKEKVDKEALALCTDRDMQEIGIPLGPRKKILNYFSTRKNS [L36M]: the abundance fitness is -0.164 ± 0.08. Regarding TLEEDLKKLQLSEFFDIFEKEKVDKEALALCTDRDDQEIGIPLGPRKKILNYFSTRKNS [L36D], the abundance fitness was -0.565 ± 0.13.

On to TLEEDLKKLQLSEFFDIFEKEKVDKEALALCTDRDIQEIGIPLGPRKKILNYFSTRKNS [L36I], for which the abundance fitness was -0.465 ± 0.11.

In the case of TLEEDLKKLQLSEFFDIFEKEKVDKEALALCTDRDRQEIGIPLGPRKKILNYFSTRKNS [L36R], the abundance fitness was -0.434 ± 0.072.

In the case of TLEEDLKKLQLSEFFDIFEKEKVDKEALALCTDRDSQEIGIPLGPRKKILNYFSTRKNS [L36S], the abundance fitness is -0.293 ± 0.07. As to TLEEDLKKLQLSEFFDIFEKEKVDKEALALCTDRDPQEIGIPLGPRKKILNYFSTRKNS [L36P], the abundance fitness is -0.473 ± 0.12. To TLEEDLKKLQLSEFFDIFEKEKVDKEALALCTDRDGQEIGIPLGPRKKILNYFSTRKNS [L36G] belongs -0.322 ± 0.066; to TLEEDLKKLQLSEFFDIFEKEKVDKEALALCTDPDLQEIGIPLGPRKKILNYFSTRKNS [R34P], -0.266 ± 0.1. In the case of TLEEDLKKLQLSEFFDIFEKEKVDKEALALCTDWDLQEIGIPLGPRKKILNYFSTRKNS [R34W], the abundance fitness is -0.051 ± 0.092. To TLEEDLKKLQLSEFFDIFEKEKVDKEALALCTDYDLQEIGIPLGPRKKILNYFSTRKNS [R34Y] belongs 0.367 ± 0.093.

For the variant TLEEDLKKLQLSEFFDIFEKEKVDKEALALCTDIDLQEIGIPLGPRKKILNYFSTRKNS [R34I], the abundance fitness is -0.135 ± 0.13.

For TLEEDLKKLQLSEFFDIFEKEKVDKEALALCTDGDLQEIGIPLGPRKKILNYFSTRKNS [R34G], the abundance fitness was determined as 0.201 ± 0.065. For TLEEDLKKLQLSEFFDIFEKEKVDKEALALCTDKDLQEIGIPLGPRKKILNYFSTRKNS [R34K], the abundance fitness is -0.087 ± 0.095. As to TLEEDLKKLQLSEFFDIFEKEKVDKEALALCTDTDLQEIGIPLGPRKKILNYFSTRKNS [R34T], the abundance fitness worked out at 0.076 ± 0.082. Regarding TLEEDLKKLQLSEFFDIFEKEKVDKEALALCTDHDLQEIGIPLGPRKKILNYFSTRKNS [R34H], the abundance fitness was found to be 0.085 ± 0.13. Take TLEEDLKKLQLSEFFDIFEKEKVDKEALALCTDLDLQEIGIPLGPRKKILNYFSTRKNS [R34L]: the abundance fitness was -0.001 ± 0.063.

Turning to TLEEDLKKLQLSEFFDIFEKEKVDKEALALCTDQDLQEIGIPLGPRKKILNYFSTRKNS [R34Q], the abundance fitness came to 0.059 ± 0.1. Turning to TLEEDLKKLQLSEFFDIFEKEKVDKEALALCTDVDLQEIGIPLGPRKKILNYFSTRKNS [R34V], the abundance fitness worked out at 0.072 ± 0.07. To TLEEDLKKLQLSEFFDIFEKEKVDKEALALCTDSDLQEIGIPLGPRKKILNYFSTRKNS [R34S] belongs 0.074 ± 0.061; to TLEEDLKKLQLSEFFDIFEKEKVDKEALALCTDNDLQEIGIPLGPRKKILNYFSTRKNS [R34N], 0.368 ± 0.089.

In the case of TLEEDLKKLQLSEFFDIFEKEKVDKEALALCTDFDLQEIGIPLGPRKKILNYFSTRKNS [R34F], the abundance fitness turned out to be 0.174 ± 0.089. In the case of TLEEDLKKLQLSEFFDIFEKEKVDKEALALCTDMDLQEIGIPLGPRKKILNYFSTRKNS [R34M], the abundance fitness was 0.32 ± 0.092. On to TLEEDLKKLQLSEFFDIFEKEKVDKEALALCTDRDLQVIGIPLGPRKKILNYFSTRKNS [E38V], for which the abundance fitness was -0.036 ± 0.065. Regarding TLEEDLKKLQLSEFFDIFEKEKVDKEALALCTDRDLQFIGIPLGPRKKILNYFSTRKNS [E38F], the abundance fitness was -0.468 ± 0.093.

Consider TLEEDLKKLQLSEFFDIFEKEKVDKEALALCTDRDLQIIGIPLGPRKKILNYFSTRKNS [E38I], for which the abundance fitness was -0.294 ± 0.11. To TLEEDLKKLQLSEFFDIFEKEKVDKEALALCTDRDLQKIGIPLGPRKKILNYFSTRKNS [E38K] belongs 0.299 ± 0.094; to TLEEDLKKLQLSEFFDIFEKEKVDKEALALCTDRDLQMIGIPLGPRKKILNYFSTRKNS [E38M], 0.033 ± 0.097. The value for TLEEDLKKLQLSEFFDIFEKEKVDKEALALCTDRDLQGIGIPLGPRKKILNYFSTRKNS [E38G] was -0.319 ± 0.074. To TLEEDLKKLQLSEFFDIFEKEKVDKEALALCTDRDLQTIGIPLGPRKKILNYFSTRKNS [E38T] belongs -0.051 ± 0.083.

TLEEDLKKLQLSEFFDIFEKEKVDKEALALCTDRDLQCIGIPLGPRKKILNYFSTRKNS [E38C]: the abundance fitness was -0.129 ± 0.08. To TLEEDLKKLQLSEFFDIFEKEKVDKEALALCTDRDLQYIGIPLGPRKKILNYFSTRKNS [E38Y] belongs -0.55 ± 0.11; to TLEEDLKKLQLSEFFDIFEKEKVDKEALALCTDRDLQPIGIPLGPRKKILNYFSTRKNS [E38P], -0.888 ± 0.15. With TLEEDLKKLQLSEFFDIFEKEKVDKEALALCTDRDLQHIGIPLGPRKKILNYFSTRKNS [E38H], the abundance fitness was -0.302 ± 0.1. As to TLEEDLKKLQLSEFFDIFEKEKVDKEALALCTDRDLQAIGIPLGPRKKILNYFSTRKNS [E38A], the abundance fitness was 0.181 ± 0.077. For the variant TLEEDLKKLQLSEFFDIFEKEKVDKEALALCTDRDLQSIGIPLGPRKKILNYFSTRKNS [E38S], the abundance fitness was -0.369 ± 0.07.

For the variant TLEEDLKKLQLSEFFDIFEKEKVDKEALALCTDRDLQQIGIPLGPRKKILNYFSTRKNS [E38Q], the abundance fitness was -0.161 ± 0.13. The value for TLEEDLKKLQLSEFFDIFEKEKVDKEALALCTDRDLQDIGIPLGPRKKILNYFSTRKNS [E38D] was 0.067 ± 0.077.
